Assay results published in PMC2652662, “Studies of a Ring-Cleaving Dioxygenase Illuminate the Role of Cholesterol Metabolism in the Pathogenesis of Mycobacterium tuberculosis” (PLoS Pathogens, 2009).

Tests used:
HsaC = target: T1, HsaC (Mycobacterium tuberculosis, UniProt P9WNW7); type: biochemical; conditions: 20 mM HEPES, 80 mM NaCl, pH 7.0, 5% O2, 25°C; slow substrate, mechanism-based oxidative inactivation
T1 construct: full-length, recombinant in E. coli, purified anaerobically, no tag mentioned; Fe(II) enzyme; gene 903 bp; octamer
T1 sequence (P9WNW7 whole entry): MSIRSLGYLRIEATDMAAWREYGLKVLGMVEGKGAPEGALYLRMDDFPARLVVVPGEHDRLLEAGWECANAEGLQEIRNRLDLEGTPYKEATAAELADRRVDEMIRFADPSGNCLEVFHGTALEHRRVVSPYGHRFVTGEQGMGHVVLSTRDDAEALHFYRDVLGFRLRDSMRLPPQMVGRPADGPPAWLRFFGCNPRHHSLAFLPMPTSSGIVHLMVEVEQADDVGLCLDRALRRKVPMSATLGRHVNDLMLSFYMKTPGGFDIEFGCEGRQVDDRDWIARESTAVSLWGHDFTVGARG

Oc1cccc(-c2ccccc2)c1O = experiment: purified protein; conditions: pH 7.0; 25.0 °C
[1] = tested on: Cc1cc(Cl)c(O)c(O)c1CCc1ccccc1Cl; experiment: purified protein; conditions: pH 7.0; 25.0 °C
[2] = tested on: Cc1ccc(O)c(O)c1CCc1ccccc1Cl; experiment: purified protein; conditions: pH 7.0; 25.0 °C
[3] = tested on: Cc1ccc(O)c(O)c1CC[C@@H]1C(=O)CC[C@]2(C)C(=O)CC[C@@H]12; experiment: purified protein; conditions: pH 7.0; 25.0 °C

| Compound | Km (HsaC) | Km (Oc1cccc(-c2ccccc2)c1O) | kcat/Km (Oc1cccc(-c2ccccc2)c1O) | Km [1] | kcat/Km [1] | Km [2] | kcat/Km [2] | Km [3] | kcat/Km [3] |
| --- | --- | --- | --- | --- | --- | --- | --- | --- | --- |
| Oc1cccc(-c2c(Cl)cccc2Cl)c1O [2′,6′-diCl DHB] | 6.7 µM | – | – | – | – | – | – | – | – |
| HsaC (Mycobacterium tuberculosis H37Rv) | – | 10 (2) µM | 160000 M⁻¹ s⁻¹ | 3.2 (0.3) µM | 85000 M⁻¹ s⁻¹ | 4.8 (0.6) µM | 1.4e+06 M⁻¹ s⁻¹ | 1.1 (0.2) µM | 1.5e+07 M⁻¹ s⁻¹ |
